Experimental data taken from publication PMC8891067.

B1: bCerS (CCNA_01212) (Caulobacter vibrioides NA1000) (protein)
chain: MPFDSTNADLSVIPVKTPAELKRFIALPARLNAKDPNWITPLFMERTDALTPKTNPFFDHAEVQLFLATRGGRDVGRISAQIDQLTPQPTEGRLDGHFGMIAAEDDPAVFNVLFRAAEDWLRARGRTHAVGPFNLSINEEVGLLVWGFDTPPMVLMGHDPVYAGPRVEEQGYAKAQDLFAYKADETGDIPEIAQRRVKRGLPSGVVLRQLDMSRYDQEVQTLTEILNDAWSDNWGFTPTTEAETRQLAKSLKQVIDQRLVWFSEIDGEAAGVVVFLPNVNEAIADLKGKLLPFGWAKLLWRLKVKGVKSARIPLMGVKKKFQTSQRGRMLPFWMMKASRDMAMSLGYNRYEISWVLEANKAMTHIAENVGGTHYKTYRVYEKAL
B2: Spt (CCNA_01220) (Caulobacter vibrioides NA1000) (protein)
chain: MGLFDKHLAYRDAYKAIQDVGANPFKVRFDAVHSPTEGVVDGRPTILLGTNNYLGLTFDEQAIAASVKAVQERGTGTTGSRIANGSFESHVELEQELAKFYGRKHAMVFTTGYQANLGVLSTLVGRGDHLILDADSHASIYDGSRLGHAEVIRFRHNDPEDLAKRLRRLGDAPGERLIVVEGIYSMIGDVAPLKEIAAVKREMGGYLLVDEAHSMGVLGATGRGLAEAAGVEEDVDFIVGTFSKSLGAIGGFCVSDHDDFDVMRVICRPYMFTASLPPAVAASTVTALRRMIEQPELRDRLNRNAKRLYDGLTAMGFLTGPSASPIVAATMPDQERAIAMWNGLLQAGVYLNLALPPATPDSRPLLRASVSAAHTDEQIDAVLKTYGEIGAALGVIEPLKRARA

Tests used:
purified protein [1] = substrate: CCCCCCCCCCCCCCCC(=O)SCCNC(=O)CCNC(=O)[C@H](O)C(C)(C)COP(=O)(O)OP(=O)(O)OC[C@H]1O[C@@H](n2cnc3c(N)ncnc32)[C@H](O)[C@@H]1OP(=O)(O)O; assay: purified protein; type: biochemical, Caulobacter vibrioides; conditions: 100 mM HEPES
purified protein [2] = substrate: N[C@@H](CO)C(=O)O; assay: purified protein; type: biochemical, Caulobacter vibrioides; conditions: 250 μM C16:0-CoA, 100 mM HEPES, 250 mM NaCl, pH 7.0, 30 °C

Protein	Km (purified protein [1]; with 3-KDS (40 μM), 150 mM NaCl, pH 7.5, 30 °C)	Km (purified protein [1]; 20 mM L-serine, 250 mM NaCl, pH 7.0, 30 °C)	Km (purified protein [2])
B1	21.3 ± 4.1 µM	–	–
B2	–	110.40 ± 13.37 µM	2980 ± 250 µM
